One may read the stoichiometry N as the number of molecules, sites or subunits per partner or assembly.

We go through 10 molecules from publication PMC12217004, “Evolutionary regulation of human Fas ligand (CD95L) by plasmin in solid cancer immunotherapy” (Nature Communications, 2025).

Series [1] has as its target murine Fas ligand extracellular domain, long form, His-tagged (muFasL^L, 103-281) (mouse) (UniProt P41047). The experiment in a line: non-reducing gel with 60% lowered SDS, FasL immunoblot; his-tagged human and murine FasL forms added onto murine 4T1 cells (also human OVCAR3 cells) for 2 hr in serum-free media; supernatant precipitated and loaded without boiling on non-reducing gels.

Series [2] has as its target human Fas ligand extracellular domain, shortest form, His-tagged (HuFasL^ST, 146-281) (human) (UniProt P48023). The series can be described thus: SEC; freshly purified FasL in PBS, 10 ug loaded on Superdex 200 10/300 GL, 1 ml/min, A280; trimer and monomer peaks. In general terms: Size exclusion chromatography separates by hydrodynamic size, large species first.
The target of series [3] is Rhesus monkey Fas ligand extracellular domain, shortest form (RhFasL^ST) (Rhesus monkey) (UniProt P63307). Described as above.
The target of series [4] is murine Fas ligand extracellular domain, shorter form, His-tagged (muFasL^S, 134-281) (mouse) (UniProt P41047). The experiment in a line: non-reducing gel with 60% lowered SDS, FasL immunoblot; his-tagged human and murine FasL forms added onto murine 4T1 cells (also human OVCAR3 cells) for 2 hr in serum-free media; supernatant precipitated and loaded without boiling on non-reducing gels. (In general: In western blotting, separated proteins are transferred to a membrane and probed.)

Series [5] deals with the molecule itself. The series can be described thus: SEC; freshly purified FasL in PBS, 10 ug loaded on Superdex 200 10/300 GL, 1 ml/min, A280; trimer and monomer peaks.
Series [6] has as its target T1, human Fas ligand extracellular domain, shorter form, His-tagged (HuFasL^S, 134-281) (human), P48023.
T1 chain: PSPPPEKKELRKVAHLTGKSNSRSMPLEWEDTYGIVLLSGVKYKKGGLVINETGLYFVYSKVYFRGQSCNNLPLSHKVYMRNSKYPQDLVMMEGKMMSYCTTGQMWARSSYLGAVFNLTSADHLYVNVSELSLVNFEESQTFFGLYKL
The series is described as above. Conditions: remark: other sources report otherwise.

With “murine Fas ligand extracellular domain, long form, His-tagged (muFasL^L, 103-281) (from UniProt P41047 103-279) (domain or fragment)”, the stoichiometry N in series [1] is 3.
As for “human Fas ligand extracellular domain, shortest form, His-tagged (HuFasL^ST, 146-281) (from UniProt P48023 146-281) (domain or fragment)”, the stoichiometry N in series [2] came out at 3.
Consider “Rhesus monkey Fas ligand extracellular domain, shortest form (RhFasL^ST) (from UniProt P63307 146-280) (domain or fragment)”, for which the stoichiometry N in series [3] was 3.
Take “murine Fas ligand extracellular domain, shorter form, His-tagged (muFasL^S, 134-281) (from UniProt P41047 134-279) (domain or fragment)”: the stoichiometry N in series [4] is 3.

B1: human Fas ligand extracellular domain, long form, His-tagged (HuFasL^L, 103-281) (domain or fragment, UniProt P48023 103-281, looked up)
chain: QLFHLQKELAELRESTSQMHTASSLEKQIGHPSPPPEKKELRKVAHLTGKSNSRSMPLEWEDTYGIVLLSGVKYKKGGLVINETGLYFVYSKVYFRGQSCNNLPLSHKVYMRNSKYPQDLVMMEGKMMSYCTTGQMWARSSYLGAVFNLTSADHLYVNVSELSLVNFEESQTFFGLYKL
notes: human Fas ligand (FasL, CD95L), entire extracellular domain, residues 103-281 (Q103-L281), carries S153; C-terminal His-tag versions were poorly expressed and not functional; N-terminal His-tag proteins were used; Mixture of trimer and monomer by SEC; also called Long^(L); huFasL^WT; source: Freestyle CHO-S cells, transfected, purified from supernatant (his-TRAP); not shown: His tag, N-terminal, …
B1: the “stoichiometry N” value in series [5] stood at 3.

B2: human Fas ligand extracellular domain, long form, S153P (HuFasL-S153P^L, 103-281) (domain or fragment, UniProt P48023 103-281, looked up)
chain: QLFHLQKELAELRESTSQMHTASSLEKQIGHPSPPPEKKELRKVAHLTGKPNSRSMPLEWEDTYGIVLLSGVKYKKGGLVINETGLYFVYSKVYFRGQSCNNLPLSHKVYMRNSKYPQDLVMMEGKMMSYCTTGQMWARSSYLGAVFNLTSADHLYVNVSELSLVNFEESQTFFGLYKL
notes: human Fas ligand (FasL), residues 103-281 with S153P; The substitution was engineered here; source: Freestyle CHO-S cells, transfected, purified from supernatant (his-TRAP)
As to B2, the “stoichiometry N” value in series [5] came to 3.

B3: human Fas ligand extracellular domain, shorter form, His-tagged (HuFasL^S, 134-281), P48023 134-281 (domain or fragment)
chain: PSPPPEKKELRKVAHLTGKSNSRSMPLEWEDTYGIVLLSGVKYKKGGLVINETGLYFVYSKVYFRGQSCNNLPLSHKVYMRNSKYPQDLVMMEGKMMSYCTTGQMWARSSYLGAVFNLTSADHLYVNVSELSLVNFEESQTFFGLYKL
B3 showed a stoichiometry N in series [6] of 3.

B4: human Fas ligand extracellular domain, shorter form, S153P (HuFasL-S153P^S, 134-281) (domain or fragment, UniProt P48023 134-281, looked up)
chain: PSPPPEKKELRKVAHLTGKPNSRSMPLEWEDTYGIVLLSGVKYKKGGLVINETGLYFVYSKVYFRGQSCNNLPLSHKVYMRNSKYPQDLVMMEGKMMSYCTTGQMWARSSYLGAVFNLTSADHLYVNVSELSLVNFEESQTFFGLYKL
notes: human Fas ligand (FasL), residues 134-281 with S153P; The substitution was engineered here; source: Freestyle CHO-S cells, transfected, purified from supernatant (his-TRAP)
As for B4, the “stoichiometry N” value in series [5] worked out at 3.

B5: Rhesus monkey Fas ligand extracellular domain, long form, His-tagged (RhFasL^L, 103-281) (domain or fragment, UniProt P63307 103-280, looked up)
chain: LFHLQKELAELRESTSQKHTASSLEKQIGHPSPPPEKKEQRKVAHLTGKPNSRSMPLEWEDTYGIVLLSGVKYKKGGLVINETGLYFVYSKVYFRGQSCTNLPLSHKVYMRNSKYPQDLVMMEGKMMSYCTTGQMWAHSSYLGAVFNLTSADHLYVNVSELSLVNFEESQTFFGLYKL
notes: Rhesus monkey Fas ligand (FasL), entire extracellular domain, residues 103-281, carries P153; source: Freestyle CHO-S cells, transfected, purified from supernatant (his-TRAP); not shown: His tag, N-terminal, kept
Take B5: the “stoichiometry N” value in series [5] is 3.

B6: Rhesus monkey Fas ligand extracellular domain, shorter form (RhFasL^S, 134-281) (domain or fragment, UniProt P63307 134-280, looked up)
chain: SPPPEKKEQRKVAHLTGKPNSRSMPLEWEDTYGIVLLSGVKYKKGGLVINETGLYFVYSKVYFRGQSCTNLPLSHKVYMRNSKYPQDLVMMEGKMMSYCTTGQMWAHSSYLGAVFNLTSADHLYVNVSELSLVNFEESQTFFGLYKL
notes: Rhesus monkey Fas ligand (FasL), residues 134-281, carries P153; source: Freestyle CHO-S cells, transfected, purified from supernatant (his-TRAP)
With B6, the “stoichiometry N” value in series [5] was determined as 3.
